According to article doi:10.1101/464701 (bioRxiv, 2018):

T1: MukB (E. coli SMC protein of MukBEF) (E. coli, UniProt P22523 1-1486)
T1 sequence: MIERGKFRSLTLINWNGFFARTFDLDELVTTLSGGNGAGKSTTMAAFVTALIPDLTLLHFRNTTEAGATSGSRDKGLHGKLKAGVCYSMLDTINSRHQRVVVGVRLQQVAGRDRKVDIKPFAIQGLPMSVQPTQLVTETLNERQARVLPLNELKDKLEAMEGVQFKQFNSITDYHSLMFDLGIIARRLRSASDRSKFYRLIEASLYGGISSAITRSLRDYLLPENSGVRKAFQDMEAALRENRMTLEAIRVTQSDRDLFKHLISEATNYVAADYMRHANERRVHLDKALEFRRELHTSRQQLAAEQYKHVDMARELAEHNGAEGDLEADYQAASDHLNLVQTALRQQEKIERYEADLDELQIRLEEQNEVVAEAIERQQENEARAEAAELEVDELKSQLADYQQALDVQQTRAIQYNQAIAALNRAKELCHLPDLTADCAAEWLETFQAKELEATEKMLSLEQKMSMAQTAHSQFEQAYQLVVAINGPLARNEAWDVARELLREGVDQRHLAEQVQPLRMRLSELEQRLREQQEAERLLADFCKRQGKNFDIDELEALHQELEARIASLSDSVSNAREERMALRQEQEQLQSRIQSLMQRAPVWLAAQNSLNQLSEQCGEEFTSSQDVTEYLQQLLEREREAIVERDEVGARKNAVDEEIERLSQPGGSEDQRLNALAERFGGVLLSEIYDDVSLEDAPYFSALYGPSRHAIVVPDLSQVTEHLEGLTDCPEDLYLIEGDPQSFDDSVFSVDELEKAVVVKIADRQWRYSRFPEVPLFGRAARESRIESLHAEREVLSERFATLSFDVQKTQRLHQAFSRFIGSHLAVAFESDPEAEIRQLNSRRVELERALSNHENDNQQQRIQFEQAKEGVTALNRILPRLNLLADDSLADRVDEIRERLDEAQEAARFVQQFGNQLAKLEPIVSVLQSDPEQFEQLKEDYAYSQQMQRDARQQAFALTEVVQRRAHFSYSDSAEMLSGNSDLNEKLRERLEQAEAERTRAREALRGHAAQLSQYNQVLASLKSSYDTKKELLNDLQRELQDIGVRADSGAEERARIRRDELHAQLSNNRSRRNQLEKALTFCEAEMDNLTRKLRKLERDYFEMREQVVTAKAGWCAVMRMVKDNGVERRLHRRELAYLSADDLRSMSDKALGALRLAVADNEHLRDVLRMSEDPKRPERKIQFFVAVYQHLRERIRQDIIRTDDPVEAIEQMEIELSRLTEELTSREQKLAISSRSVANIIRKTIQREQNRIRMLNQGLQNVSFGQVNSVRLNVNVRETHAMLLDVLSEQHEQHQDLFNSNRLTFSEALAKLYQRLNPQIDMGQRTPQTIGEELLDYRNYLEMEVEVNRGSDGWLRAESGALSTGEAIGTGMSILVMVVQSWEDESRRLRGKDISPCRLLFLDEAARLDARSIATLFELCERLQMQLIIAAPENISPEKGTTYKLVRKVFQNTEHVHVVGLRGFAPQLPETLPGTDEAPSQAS

B1: Scc2 residues 151-1493 (S. cerevisiae cohesin loader), recombinant (domain or fragment)
chain: SNAGNLSFNDNSSNKKTKTSTGVTMTQANLAEQYLNDLKNILDIVGFDQNSAEIGNIEYWLQLPNKKFVLTTNCLTKLQMTIKNITDNPQLSNSIEITWLLRLLDVMVCNIKFSKSSLKMGLDDSMLRYIALLSTIVLFNIFLLGKNDSNLHRESYIMEPVNFLSDLIESLKILTIEYGSLKIEFDTFQEALELLPKYIRNGPFLDDNVTAKLVYIFSDLLMNNDIEATTNIQFQSFWDNVKRISSDILVSLFGSFDQQRGFIIEELLSHIEKLPTKRIQKKLRKVGNQNIYITDFTFTLMSMLENINCYSFCNQMKDIAPENIDLLKNEYKKQEEFLFNIVEHINDTILERFFKNPSALRYVIDNFVQDLLLLISSPQWPVTEKILSSLLKRLLSVYSPSMQVSANIETICLQLIGNIGSTIFDIKCSTRDHEDNNLIKMINYPETLPHFFKSFEECIAYNETIKCRRSATRFLWNLRLGTILILEEYTKDAKEQIITVDNELKKILEQIKDGGLGPELENREADFSTIKLDYFSILHAFELLNLYDPYLKLILSLLAKDKIKLRSTAIKCLSMLASKDKVILSNPMVKETIHRRLNDSSASVKDAILDLVSINSSYFEFYQQINNNYNDDSIMVRKHVLRINEKMYDETNDIVTKVYVIARILMKIEDEEDNIIDMARLILLNRWILKVHEVLDQPEKLKEISSSVLLVMSRVAIMNEKCSQLFDLFLNFYLLNKEAHSKEAYDKITHVLTILTDFLVQKIVELNSDDTNEKNSIVDKQNFLNLLAKFADSTVSFLTKDHITALYPYMVSDEKSDFHYYILQVFRCTFEKLANFKQKFLYDLETTLLSRLPKMNVREIDEAMPLIWSVATHRHDTARVAKACSSCLSHLHPYINKANNEEAAIVVDGKLQRLIYLSTGFARFCFPKPSNDKIAFLQEGETLYEHITKCLLVLSKDKITHVIRRVAVKNLTKLCGNHPKLFNSRHVLHLLDKEFQSDQLDIKLVILESLYDLFLLEERKSVRNTGVNSTLSSNSILKKKLLKTNRVEFANDGVCSALATRFLDNILQLCLLRDLKNSLVAIRLLKLILKFGYTNPSHSIPTVIALFASTSQYIRHVAYELLEDLFEKYETLVFSSLSRGVTKAIHYSIHTDEKYYYKHDHFLSLLEKLCGTGKKNGPKFFKVLKRIMQSYLDDITDLTSTNSSVQKSIFVLCTNISNITFVSQYDLVSLLKTIDLTTDRLKEVIMDEIGDNVSSLSVSEEKLSGIILIQLSLQDLGTYLLHLYGLRDDVLLLDIVEESELKNKQLPAKKPDISKFSAQLENIEQYSSNGKLLTYFRKHVKDT
B2: MukE (E. coli KITE protein of MukBEF), untagged, from the co-expressed holocomplex (natural protein)
chain: MSSTNIEQVMPVKLAQALANPLFPALDSALRSGRHIGLDELDNHAFLMDFQEYLEEFYARYNVELIRAPEGFFYLRPRSTTLIPRSVLSELDMMVGKILCYLYLSPERLANEGIFTQQELYDELLTLADEAKLLKLVNNRSTGSDVDRQKLQEKVRSSLNRLRRLGMVWFMGHDSSKFRITESVFRFGADVRAGDDPREAQRRLIRDGEAMPIENHLQLNDETEENQPDSGEEE
B3: MukE (E. coli) made as His6-SUMO-MukE for the MukEF preparation (natural protein)
chain: B2 chain
B4: Scc3 (S. cerevisiae cohesin HAWK protein), recombinant (natural protein)
chain: MTAVRRSTRIRTKSQVIEEDYDDEQNTSAQHVESDKITAKTQHEEEEEQDTGESEESSSEDDYEDQDDDDYVDTATAKRKSRKRKPKSASNTSSKRQKKKPTSAQKSAVSHAPAYHRSKKDQDQYLEIAKDFQPTELFDILSTSEDVSIEELLREWLETYSENRDKFLQEFINLLLNCCGSVARVEDHDVHSNESSNETIGEIQLLFQRQKLHEFYLLISKENKKRKNFKMGPLYQNFAEFMTKLLEVANDLQLLYVESDEDDTQIVTGNLVLDLLTWLSSFSVCKIRCFRYISTLTLYLFQDYLTQQAVNLEKNYLAKLSKQLSLEEKKKRPNNKTLEKLESTIAETQGSKVVIDSIIDNIVKLCFVHRYKDVSDLIRSESMLHLSIWIKNYPEYFLKVTFLKYFGWLLSDNSVSVRLQVTKILPHLIIQNHNSKSTDNSAIRQVFERFKTKILEVAIRDVNLDVRIHSIQVLTEASSLGYLDDSEILIISSLMFDEEFDPFKTSSFNKRSKFLSTVAKFLARVIKEKFDEFIKTHEDLPKEVDGLEVGPVVQVGIFIKILNDSLIYHLKDCAEVDSRTKIRMLTQAAEFLSPYISTHLKTICNLLISDTESNELIQKLQNSANNNSDDEDVDDEELDITPLFPIDRNSTILYLNVFHGLCAGANNPKIQTKDSVKEIVLPLFYDLLNAASIESADILCPLLESFITFSLDDWISIGYETELKKITDKTIKAFMDSTIGNSKVDMKYDIFAKFIHHIHHFEKKELQEKFLNQIATLKIHLKKFLQEKMDPNNSRDDYKDLTCSLYELYINKLTILGRDYPIEVDEELLQLFLNNFVSRIPIMFQDFDDSTAQEINFKMLVLLATWNLEKWREIIEKVRDYENSISKDLRSVWKPIAAIIGRLNTLVISLAATNETFENINSLFYLKWSACTSLMDIIVAIKIFELKLPADATTWRYSMSEQFPFYLHDNASKVLLKIFLYLESLFAKQVDVQLERVADEDANLNDLPETGFFENIETEFLLFTVKLKGLMKLNILDERFASRVALNKEKLGPLFKKIVDDTIMENPEPNKKNIQKAKSNQTQREKAPLQPNSERETDHANTENNDPDIPMTIDLEPIEESSQNNSELAPIEEHPTVVDAIDNSDEITQD
B5: MukF (E. coli kleisin of MukBEF) (natural protein)
chain: MSEFSQTVPELVAWARKNDFSISLPVDRLSFLLAVATLNGERLDGEMSEGELVDAFRHVSDAFEQTSETIGVRANNAINDMVRQRLLNRFTSEQAEGNAIYRLTPLGIGITDYYIRQREFSTLRLSMQLSIVAGELKRAADAAEEGGDEFHWHRNVYAPLKYSVAEIFDSIDLTQRLMDEQQQQVKDDIAQLLNKDWRAAISSCELLLSETSGTLRELQDTLEAAGDKLQANLLRIQDATMTHDDLHFVDRLVFDLQSKLDRIISWGQQSIDLWIGYDRHVHKFIRTAIDMDKNRVFAQRLRQSVQTYFDEPWALTYANADRLLDMRDEEMALRDEEVTGELPEDLEYEEFNEIREQLAAIIEEQLAVYKTRQVPLDLGLVVREYLSQYPRARHFDVARIVIDQAVRLGVAQADFTGLPAKWQPINDYGAKVQAHVIDKY
B6: MukEF complex (E. coli) (complex)
chain 1: B2 chain
chain 2: B5 chain

Columns and labels:
[1] = biological target: Smc1-Smc3-Scc1 trimer (S. cerevisiae cohesin) (S. cerevisiae, UniProt P32908;P47037;Q12158); assay: SEC
Chain of Smc1-Smc3-Scc1 trimer (S. cerevisiae cohesin) (P32908 whole entry, chain 1 of 3): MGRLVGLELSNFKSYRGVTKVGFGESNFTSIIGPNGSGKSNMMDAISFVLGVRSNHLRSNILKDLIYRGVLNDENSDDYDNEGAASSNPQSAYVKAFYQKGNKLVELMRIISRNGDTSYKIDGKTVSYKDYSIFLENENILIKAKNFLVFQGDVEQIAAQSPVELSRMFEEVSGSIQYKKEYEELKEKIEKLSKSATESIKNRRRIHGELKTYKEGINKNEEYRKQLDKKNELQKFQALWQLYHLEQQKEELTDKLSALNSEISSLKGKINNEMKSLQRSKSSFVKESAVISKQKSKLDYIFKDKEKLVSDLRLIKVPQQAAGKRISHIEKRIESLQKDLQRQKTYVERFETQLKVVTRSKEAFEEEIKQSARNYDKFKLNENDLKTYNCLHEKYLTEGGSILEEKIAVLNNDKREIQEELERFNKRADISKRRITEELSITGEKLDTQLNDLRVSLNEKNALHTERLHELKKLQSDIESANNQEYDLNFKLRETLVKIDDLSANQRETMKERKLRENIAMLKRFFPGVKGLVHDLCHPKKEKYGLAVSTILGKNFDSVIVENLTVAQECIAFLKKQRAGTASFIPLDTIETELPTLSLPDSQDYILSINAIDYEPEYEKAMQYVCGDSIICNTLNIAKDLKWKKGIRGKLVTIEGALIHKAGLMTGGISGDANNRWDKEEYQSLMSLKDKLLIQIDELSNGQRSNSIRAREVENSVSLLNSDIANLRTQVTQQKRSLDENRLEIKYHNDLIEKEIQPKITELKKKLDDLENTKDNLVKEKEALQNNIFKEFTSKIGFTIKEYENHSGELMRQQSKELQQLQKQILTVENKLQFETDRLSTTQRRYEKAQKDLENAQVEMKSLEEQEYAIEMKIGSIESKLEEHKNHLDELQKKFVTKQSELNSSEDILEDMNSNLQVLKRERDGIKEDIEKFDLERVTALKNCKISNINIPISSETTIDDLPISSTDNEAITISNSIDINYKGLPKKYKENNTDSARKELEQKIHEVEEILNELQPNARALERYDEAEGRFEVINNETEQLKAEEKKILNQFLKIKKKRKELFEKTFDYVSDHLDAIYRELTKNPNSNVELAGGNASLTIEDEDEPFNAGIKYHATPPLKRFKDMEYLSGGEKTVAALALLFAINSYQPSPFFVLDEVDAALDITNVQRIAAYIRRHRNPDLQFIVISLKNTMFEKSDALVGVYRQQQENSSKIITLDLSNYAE
Chain of Smc1-Smc3-Scc1 trimer (S. cerevisiae cohesin) (P47037 whole entry, chain 2 of 3): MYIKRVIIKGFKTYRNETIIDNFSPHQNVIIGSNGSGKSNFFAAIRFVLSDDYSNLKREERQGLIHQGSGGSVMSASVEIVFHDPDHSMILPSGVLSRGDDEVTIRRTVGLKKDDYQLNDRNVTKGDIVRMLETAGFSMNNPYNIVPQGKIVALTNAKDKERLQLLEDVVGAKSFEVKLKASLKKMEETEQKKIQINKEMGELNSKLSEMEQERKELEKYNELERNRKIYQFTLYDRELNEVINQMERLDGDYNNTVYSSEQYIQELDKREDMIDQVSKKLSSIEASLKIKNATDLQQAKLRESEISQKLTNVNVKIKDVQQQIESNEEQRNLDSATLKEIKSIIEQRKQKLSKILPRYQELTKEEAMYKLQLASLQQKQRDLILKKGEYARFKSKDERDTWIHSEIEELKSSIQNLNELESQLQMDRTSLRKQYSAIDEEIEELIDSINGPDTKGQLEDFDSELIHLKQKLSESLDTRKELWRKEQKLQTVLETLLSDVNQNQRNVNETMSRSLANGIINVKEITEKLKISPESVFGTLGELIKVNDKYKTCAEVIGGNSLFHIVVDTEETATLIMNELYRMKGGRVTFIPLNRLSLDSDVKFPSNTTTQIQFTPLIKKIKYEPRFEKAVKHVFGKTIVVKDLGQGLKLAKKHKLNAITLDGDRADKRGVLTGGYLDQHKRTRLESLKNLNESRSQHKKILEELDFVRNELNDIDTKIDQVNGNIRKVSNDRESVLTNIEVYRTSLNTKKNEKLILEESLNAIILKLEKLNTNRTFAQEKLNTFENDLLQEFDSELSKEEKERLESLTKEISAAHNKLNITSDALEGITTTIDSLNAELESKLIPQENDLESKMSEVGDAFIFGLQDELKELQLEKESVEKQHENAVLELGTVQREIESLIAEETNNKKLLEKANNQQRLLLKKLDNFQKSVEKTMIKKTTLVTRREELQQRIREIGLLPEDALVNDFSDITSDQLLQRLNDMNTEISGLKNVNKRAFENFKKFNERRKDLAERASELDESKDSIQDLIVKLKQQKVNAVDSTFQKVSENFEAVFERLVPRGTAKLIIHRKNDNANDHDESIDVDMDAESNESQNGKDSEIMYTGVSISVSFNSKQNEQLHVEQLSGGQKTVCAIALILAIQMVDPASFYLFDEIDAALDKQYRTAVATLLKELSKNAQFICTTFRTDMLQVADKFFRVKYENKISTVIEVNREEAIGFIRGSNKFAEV
Chain of Smc1-Smc3-Scc1 trimer (S. cerevisiae cohesin) (Q12158 whole entry, chain 3 of 3): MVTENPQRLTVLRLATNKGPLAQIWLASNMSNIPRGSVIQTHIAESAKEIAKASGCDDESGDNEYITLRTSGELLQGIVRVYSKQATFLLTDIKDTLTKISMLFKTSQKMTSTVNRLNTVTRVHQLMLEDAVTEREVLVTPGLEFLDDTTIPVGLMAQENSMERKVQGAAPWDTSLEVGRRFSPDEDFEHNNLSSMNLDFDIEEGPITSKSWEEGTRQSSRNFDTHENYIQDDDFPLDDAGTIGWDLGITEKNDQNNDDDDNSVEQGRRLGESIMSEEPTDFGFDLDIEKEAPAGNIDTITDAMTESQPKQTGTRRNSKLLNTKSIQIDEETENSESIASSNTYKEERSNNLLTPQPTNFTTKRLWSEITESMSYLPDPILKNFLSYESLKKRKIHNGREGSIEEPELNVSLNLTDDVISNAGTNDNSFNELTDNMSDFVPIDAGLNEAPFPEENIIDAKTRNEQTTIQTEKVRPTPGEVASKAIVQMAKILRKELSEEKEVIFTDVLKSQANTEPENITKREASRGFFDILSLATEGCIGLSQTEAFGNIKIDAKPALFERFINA

[2] = biological target: T1, MukB (E. coli SMC protein of MukBEF); assay: SEC
[3] = biological target: B5; assay: cross-linking
[4] = biological target: B5; assay: SEC

Row | Binder | binding result [1] | binding result [2] | other results
1 | B1 | binds | – | –
2 | B2 | – | binds | binding result [3]: binds
3 | B3 | – | – | binding result [4]: binds
4 | B4 | binds | – | –
5 | B5 | – | binds | –
6 | B6 | – | binds | –
